From publication PMC5986150

Tests used:
[1] = biological target: 12-ADA CaM (Drosophila melanogaster calmodulin engineered with an N-terminal N-myristoyl transferase recognition peptide and labelled with 12-azidododecanoic acid) (Drosophila melanogaster) (UniProt P62152); test: pull-down; 12-ADA CaM conjugated to DBCO-Sepharose directly from clarified lysate, resin washed; clarified E. coli lysate with CaN (25 mM Tris pH 7.5, 3 mM MgCl2, 100 mM NaCl, 2 mM CaCl2) incubated with the resin at 4°C for 45 minutes - 1 hr; washes with 2 mM CaCl2, one with 1 M NaCl; eluted with 1 mM EGTA; semi-quantitative SDS-PAGE with Coomassie
[2] = biological target: 12-ADA CaM (Drosophila melanogaster calmodulin engineered with an N-terminal N-myristoyl transferase recognition peptide and labelled with 12-azidododecanoic acid) (Drosophila melanogaster) (UniProt P62152); test: pull-down; purified 12-ADA CaM (1, 2 or 5 mg mL^-1) conjugated to DBCO-Sepharose; clarified E. coli lysate with CaN (25 mM Tris pH 7.5, 3 mM MgCl2, 100 mM NaCl, 2 mM CaCl2) incubated with the resin at 4°C for 45 minutes - 1 hr; washes with 2 mM CaCl2, one with 1 M NaCl; eluted with 1 mM EGTA; semi-quantitative SDS-PAGE with Coomassie
[3] = biological target: Calmodulin of Calmodulin Sepharose 4B (GE Healthcare Life Sciences) (UniProt P62157); test: pull-down; commercial Calmodulin Sepharose 4B (GE); clarified E. coli lysate with CaN (2 mM CaCl2) incubated with the resin at 4°C, in parallel with the 12-ADA CaM resins; eluted with 1 mM EGTA; semi-quantitative SDS-PAGE with Coomassie

“Human calcineurin (CaN), α and β subunits (from UniProt Q08209 1-521; P63098 1-170) (complex)” showed an avg. amount of CaN purified from the resin [1] of 0.6 mg, an avg. amount of CaN purified from the resin [2] of 0.1 mg and an avg. amount of CaN purified from the resin [3] of 0.2 mg.
